# Laboratory results as given in publication doi:10.1101/2025.08.04.668567 (bioRxiv, 2025).
# B1: Rice OsPHT1;11 (OsPT11) (natural protein)
# chain: MADADGGSNLAVLDALDSARTQMYHMKAIVIAGMGFFTDAYDLFCISTVSKLLGRLYYQPDGSTDSKPGALSKTANNMVIGVALVGTLMGQLVFGYFGDKLGRKRVYGVTLILMAACAIGSGLSFGSSRKAVIGTLCFFRFWLGFGIGGDYPLSATIMSEYSNKKTRGAFIAAVFAMQGVGIIFAGLVSMIVSSIFLTYNKAPSYKGNHDLSRQMPAADYVWRIVLMIGAFPALATFYWRMKMPETARYTAIIDGNAKQAANDMQKVLSIEIEAEQEKLAKFNAANNYPLLSMEFARRHGLHLIGTTTTWFLLDIAFYSQNLTQKDIFPAMGLISGAAEVNALTEMFQISKASFLVALLGTFPGYWVTVALIDKMGRYMIQLIGFFMMSMFMLAMGILYDYLKTHHFLFGLLYALTFFFANFGPNSTTFVLPAELFPTRVRSTCHAISAAAGKAGAIVAAFGIQKLTYNSQVKSIKKALIILSITNMLGFFFTFLVPETMGRSLEEISGEDGNTGAGGGGAPAAANAGVGVSASDVSRDEKFPASSTEWQTSMHA
# Biological target: the molecule itself
# Assay: cryo-EM structure
protein,measurement,value
B1,stoichiometry N,2
